Measurements reported in US20250019680, “ENGINEERED CAS13 FOR ULTRASENSITIVE NUCLEIC ACID DETECTION” (William Marsh Rice University, published 2025).

How the values were obtained:
[1] = target: T1, RBD #6L LwaCas13a (ADAR1 126-202 in Loop 1) (Leptotrichia wadei / Homo sapiens); test: cleavage_in_vitro; collateral cleavage of RNaseAlert, 30 min; conditions: label: body 32P for EMSA
T1 chain: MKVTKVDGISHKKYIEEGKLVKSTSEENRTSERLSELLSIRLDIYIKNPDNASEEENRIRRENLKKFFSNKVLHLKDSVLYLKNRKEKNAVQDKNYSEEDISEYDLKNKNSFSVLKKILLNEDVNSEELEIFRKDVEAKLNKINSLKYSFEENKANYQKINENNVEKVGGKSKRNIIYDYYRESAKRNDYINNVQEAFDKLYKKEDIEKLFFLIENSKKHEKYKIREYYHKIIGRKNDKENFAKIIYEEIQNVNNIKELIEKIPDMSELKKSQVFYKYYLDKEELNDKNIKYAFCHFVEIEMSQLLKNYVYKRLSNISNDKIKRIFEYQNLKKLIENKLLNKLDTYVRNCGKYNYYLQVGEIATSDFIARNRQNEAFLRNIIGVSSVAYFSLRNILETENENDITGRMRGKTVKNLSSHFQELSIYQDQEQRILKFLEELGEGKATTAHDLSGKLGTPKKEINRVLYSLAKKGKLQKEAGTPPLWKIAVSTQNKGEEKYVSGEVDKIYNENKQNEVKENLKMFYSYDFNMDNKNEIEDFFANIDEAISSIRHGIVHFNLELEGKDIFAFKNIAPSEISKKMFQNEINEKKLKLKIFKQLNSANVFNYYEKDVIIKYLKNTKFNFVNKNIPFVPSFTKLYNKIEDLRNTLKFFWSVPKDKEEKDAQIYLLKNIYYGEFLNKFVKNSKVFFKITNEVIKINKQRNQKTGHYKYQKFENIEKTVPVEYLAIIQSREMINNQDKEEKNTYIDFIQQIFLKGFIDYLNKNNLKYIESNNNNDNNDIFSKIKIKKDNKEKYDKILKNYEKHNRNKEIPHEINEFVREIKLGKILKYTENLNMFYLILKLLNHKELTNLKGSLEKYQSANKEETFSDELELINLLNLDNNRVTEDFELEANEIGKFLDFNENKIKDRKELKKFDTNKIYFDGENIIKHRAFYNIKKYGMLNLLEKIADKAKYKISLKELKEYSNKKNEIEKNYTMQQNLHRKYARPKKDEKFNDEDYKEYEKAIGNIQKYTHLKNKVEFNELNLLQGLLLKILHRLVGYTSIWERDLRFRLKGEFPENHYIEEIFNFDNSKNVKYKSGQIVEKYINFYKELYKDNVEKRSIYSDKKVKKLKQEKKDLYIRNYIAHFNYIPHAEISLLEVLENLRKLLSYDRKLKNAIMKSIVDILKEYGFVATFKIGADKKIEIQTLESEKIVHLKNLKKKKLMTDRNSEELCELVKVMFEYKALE

[2] = target: T2, RBD #2L LwaCas13a (hnRNP A1 1-104 in Loop 1) (Leptotrichia wadei / Homo sapiens); test: as above; conditions: label: body 32P for EMSA
RBD #3L LwaCas13a [3] = target: T3, RBD #3L LwaCas13a (Leptotrichia wadei / Homo sapiens); test: as above; conditions: label: body 32P for EMSA
[4] = target: T4, RBD #1L LwaCas13a (ADAR1 708-801 in Loop 1) (Leptotrichia wadei / Homo sapiens); test: as above; conditions: label: body 32P for EMSA
T4 chain: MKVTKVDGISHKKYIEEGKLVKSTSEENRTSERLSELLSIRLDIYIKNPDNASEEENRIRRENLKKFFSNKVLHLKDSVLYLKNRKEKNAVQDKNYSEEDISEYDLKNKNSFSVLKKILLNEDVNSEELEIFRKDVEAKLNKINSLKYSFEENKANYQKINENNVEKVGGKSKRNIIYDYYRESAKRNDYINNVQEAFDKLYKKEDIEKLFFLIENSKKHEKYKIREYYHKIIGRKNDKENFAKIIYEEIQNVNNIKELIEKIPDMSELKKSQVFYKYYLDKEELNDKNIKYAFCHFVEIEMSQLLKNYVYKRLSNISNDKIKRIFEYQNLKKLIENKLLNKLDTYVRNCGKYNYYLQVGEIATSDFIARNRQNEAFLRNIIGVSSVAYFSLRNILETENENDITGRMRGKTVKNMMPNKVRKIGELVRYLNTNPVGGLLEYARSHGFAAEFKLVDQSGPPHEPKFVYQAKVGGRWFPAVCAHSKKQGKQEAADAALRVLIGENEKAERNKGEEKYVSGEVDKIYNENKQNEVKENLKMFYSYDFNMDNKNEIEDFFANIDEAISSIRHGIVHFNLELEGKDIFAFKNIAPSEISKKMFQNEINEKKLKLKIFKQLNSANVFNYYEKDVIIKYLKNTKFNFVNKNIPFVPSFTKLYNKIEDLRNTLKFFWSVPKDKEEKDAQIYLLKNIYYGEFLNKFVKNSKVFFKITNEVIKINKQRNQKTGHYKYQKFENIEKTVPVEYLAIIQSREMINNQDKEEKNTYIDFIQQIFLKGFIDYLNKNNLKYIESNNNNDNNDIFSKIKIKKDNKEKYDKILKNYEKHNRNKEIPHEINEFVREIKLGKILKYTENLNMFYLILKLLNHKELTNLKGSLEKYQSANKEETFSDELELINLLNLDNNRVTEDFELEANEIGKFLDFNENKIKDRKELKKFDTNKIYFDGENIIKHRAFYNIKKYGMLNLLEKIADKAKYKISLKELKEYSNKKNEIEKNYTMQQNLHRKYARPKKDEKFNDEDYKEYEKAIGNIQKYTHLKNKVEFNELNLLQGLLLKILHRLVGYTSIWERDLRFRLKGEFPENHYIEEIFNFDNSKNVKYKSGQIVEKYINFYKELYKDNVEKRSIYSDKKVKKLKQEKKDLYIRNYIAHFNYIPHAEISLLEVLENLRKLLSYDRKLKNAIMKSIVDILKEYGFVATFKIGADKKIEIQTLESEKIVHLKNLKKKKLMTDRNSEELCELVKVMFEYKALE

RBD #4L LwaCas13a [5] = target: T5, RBD #4L LwaCas13a (Leptotrichia wadei / Homo sapiens); test: as above; conditions: label: body 32P for EMSA
dWT LwaCas13a [6] = target: T6, dWT LwaCas13a (Leptotrichia wadei, R1046A/H1051A); test: EMSA; crRNA complex; 5 mM MgCl2, 37 C; conditions: label: body 32P for EMSA
T6 chain: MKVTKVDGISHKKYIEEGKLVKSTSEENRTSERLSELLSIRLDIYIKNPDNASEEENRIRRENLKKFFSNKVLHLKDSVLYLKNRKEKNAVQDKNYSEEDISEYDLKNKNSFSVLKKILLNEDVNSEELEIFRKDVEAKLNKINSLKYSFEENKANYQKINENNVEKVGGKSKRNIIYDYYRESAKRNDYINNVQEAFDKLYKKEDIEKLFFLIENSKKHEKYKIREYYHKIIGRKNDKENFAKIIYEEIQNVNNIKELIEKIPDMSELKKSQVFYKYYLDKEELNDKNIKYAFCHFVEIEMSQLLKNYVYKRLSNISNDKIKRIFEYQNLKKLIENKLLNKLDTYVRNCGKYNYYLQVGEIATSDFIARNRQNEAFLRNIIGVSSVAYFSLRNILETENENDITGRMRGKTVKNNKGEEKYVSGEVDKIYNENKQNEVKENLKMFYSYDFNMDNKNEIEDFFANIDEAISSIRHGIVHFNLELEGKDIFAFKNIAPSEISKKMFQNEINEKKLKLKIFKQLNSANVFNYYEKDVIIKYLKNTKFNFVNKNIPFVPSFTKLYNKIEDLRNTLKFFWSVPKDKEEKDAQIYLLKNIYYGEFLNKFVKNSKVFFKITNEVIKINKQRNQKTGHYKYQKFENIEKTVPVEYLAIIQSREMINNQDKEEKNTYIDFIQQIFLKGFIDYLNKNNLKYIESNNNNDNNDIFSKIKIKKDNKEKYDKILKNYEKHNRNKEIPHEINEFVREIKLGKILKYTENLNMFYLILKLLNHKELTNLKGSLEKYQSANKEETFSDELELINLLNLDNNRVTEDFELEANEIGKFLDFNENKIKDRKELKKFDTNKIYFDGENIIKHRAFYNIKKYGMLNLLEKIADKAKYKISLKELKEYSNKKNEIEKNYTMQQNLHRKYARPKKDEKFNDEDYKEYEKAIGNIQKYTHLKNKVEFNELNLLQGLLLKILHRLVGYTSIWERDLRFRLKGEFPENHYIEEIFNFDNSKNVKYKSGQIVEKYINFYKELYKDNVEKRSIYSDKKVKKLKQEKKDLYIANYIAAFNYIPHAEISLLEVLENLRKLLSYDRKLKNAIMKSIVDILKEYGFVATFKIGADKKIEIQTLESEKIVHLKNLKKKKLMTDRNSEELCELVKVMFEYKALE

dWT LwaCas13a [7] = target: T6, dWT LwaCas13a; test: EMSA; crRNA complex; 50 mM Tris pH 8.0, 60 mM NaCl, 5 mM MgCl2, 37 C; conditions: label: body 32P
[8] = target: T1, RBD #6L LwaCas13a (ADAR1 126-202 in …); test: cleavage_in_vitro; collateral cleavage of RNaseAlert
[9] = target: T2, RBD #2L LwaCas13a (hnRNP A1 1-104 in …); test: as above
RBD #3L LwaCas13a [10] = target: T3, RBD #3L LwaCas13a; test: as above
RBD #4L LwaCas13a [11] = target: T5, RBD #4L LwaCas13a; test: as above

B1: cr1_N crRNA ; T1_N target (105 nt) (ssRNA ; ssRNA)
RNA 1: GACUACCCCAAAAACGAAGGGGACUAAAACAAUCUGAGGGUCCACCAAACGUAAUGCG
RNA 2: GUCUGAUAAUGGACCCCAAAAUCAGCGAAAUGCACCCCGCAUUACGUUUGGUGGACCCUCAGAUUCAACUGGCAGUAACCAGAAUGGAGAACGCAGUGGGGCGCG
binding signal [1]: 174 % higher than WT | binding signal [2]: 216 % higher than WT | binding signal (RBD #3L LwaCas13a [3]): 468 % higher than WT | binding signal [4]: 59 % higher than WT | binding signal (RBD #4L LwaCas13a [5]): 518 % higher than WT | Kd (dWT LwaCas13a [6]): 16 nM

B2: cr1_N crRNA ; T26_N_2 target (36 nt) (ssRNA ; ssRNA)
RNA 1: GACUACCCCAAAAACGAAGGGGACUAAAACAAUCUGAGGGUCCACCAAACGUAAUGCG
RNA 2: ACCCCGCAUUACGUUUGGUGGACCCUCAGAUUCAAC
Kd (dWT LwaCas13a [7]): 46 nM

B3: cr3_ssRNA1_0 crRNA ; T3_ssRNA1 target (ssRNA ; ssRNA)
RNA 1: GACUACCCCAAAAACGAAGGGGACUAAAACUAGAUUGCUGUUCUACCAAGUAAUCCAU
RNA 2: GGCCAGUGAAUUCGAGCUCGGUACCCGGGGAUCCUCUAGAAAUAUGGAUUACUUGGUAGAACAGCAAUCUACUCGACCUGCAGGCAUGCAAGCUUGGCGUAAUCAUGGUCAUAGCUGUUUCCUGUGUUUAUCCGCUCACAAUUCCACACAACAUACGAGCCGGAAGCAUAAAG
binding signal [8]: 38 % higher than WT | binding signal [9]: 59 % higher than WT | binding signal (RBD #3L LwaCas13a [10]): 102 % higher than WT | binding signal (RBD #4L LwaCas13a [11]): 91 % higher than WT
